In US20030017502A1, “Methods involving the use of capG as a diagnostic marker and methods for the identification of capG modulators for the treatment and prevention of osteoporosis and related disease states” (priority 2001, published 2003):

Test system: capG phosphorylation in RAW 264 cells
Experiment: two-dimensional anti-phosphotyrosine Western blot of RAW 264 cell lysates with and without RANKL stimulation and inhibitor pretreatment
Assay type: cell-based, murine
Details: RAW 264 cells stimulated with RANKL versus unstimulated control
Description: RAW 264 cells were obtained from Bristol Myers Squibb Department of Metabolic Diseases. The cells were grown in minimal essential media supplemented with 5% fetal bovine serum and 1% nonessential amino acids. For assay purposes, RAW 264 cells were starved for 5 hours in serum free media and then cultured in media containing 2% fetal bovine serum and RANK ligand. When inhibitors were used, as set forth below, the cells were pre-exposed to the inhibitor for one hour prior to RANKL stimulation. To identify RANKL specific tyrosine phosphorylation, RAW264 cells were treated with RANKL in the presence and absence of PP1 [4-Amino-5-(4-methylphenyl)-7-(t-butyl)pyrazolo[3,4-d]pyrimidine], a specific inhibitor of pp60src and wortmannin, a specific inhibitor of PI3kinase (Lakkakorpi, P. T. et al., “Phosphatidylinositol 3-kinase association with the osteoclast cytoskeleton, and its involvement in osteoclast attachment and spreading”. Exp. Cell Res. 237(2):296-306 (1997)), and cell lysates evaluated by proteomic analysis. Cell lysates were separated by two-dimensional electrophoresis in duplicate and transferred to PVDF membranes. […] 35(6):672-682 (2000), for subsequent proteomic analysis with the corresponding membrane analyzed by western blotting using anti-phosphotyrosine antibody. […] Maximal fluorescence incorporation occurred within 4 hours. […]

B1: RANKL: ligand recognized by receptor activator of NF-κB (RANK), leads to osteoclast differentiation (protein, UniProt O14788 140-317, looked up)
Tumor necrosis factor ligand …: IRAEKAMVDGSWLDLAKRSKLEAQPFAHLTINATDIPSGSHKVSLSSWYHDRGWAKISNMTFSNGKLIVNQDGFYYLYANICFRHHETSGDLATEYLQLMVYVTKTSIKIPSSHTLMKGGSTKYWSGNSEFHFYSINVGGFFKLRSGEEISIEVSNPSLLDPDQDATYFGAFKVRDID
Q: Which “capG phosphorylation on stimulation” value does the source give for B1 here?
A: causes capG 102 phosphorylation
